Laboratory results taken from FireProtDB (doi:10.1021/bi9909041).
Values joined by “and” are separate entries in the source; they are usually repeats but may differ in a detail not shown here. Identical values can stand only once.

Conditions: Escherichia coli (strain K12), pH 7.8, 25 °C, Urea, Potassium phosphate 10 mM, transition: 2, whole UniProt chain shown

B1: Tryptophan synthase alpha chain wild type, P0A877 (protein)
chain: MERYESLFAQLKERKEGAFVPFVTLGDPGIEQSLKIIDTLIEAGADALELGIPFSDPLADGPTIQNATLRAFAAGVTPAQCFEMLALIRQKHPTIPIGLLMYANLVFNKGIDEFYAQCEKVGVDSVLVADVPVEESAPFRQAALRHNVAPIFICPPNADDDLLRQIASYGRGYTYLLSRAGVTGAENRAALPLNHLVAKLKEYNAAPPLQGFGISAPDQVKAAIDAGAAGAISGSAIVKIIEQHINEPEKMLAALKVFVQPMKAATRS
**Q.** For B1, which denaturant m value (Absorbance) is on record?
**A.** 1.12 kcal/mol/M

**Q.** What about the “denaturant midpoint (higher = more stable)” value (shortened to “denaturant midpoint”) (Absorbance) of the same protein?
**A.** 3.73 M

**Q.** What about the unfolding free energy (Absorbance) of the same protein?
**A.** 17.4 kJ/mol

**Q.** What about the denaturant m value (CD) of the same protein?
**A.** 1.11 kcal/mol/M and 1.09 kcal/mol/M

**Q.** And the “denaturant midpoint” value (CD)?
**A.** 3.67 M and 3.65 M

**Q.** And the unfolding free energy (CD)?
**A.** 17.1 kJ/mol and 16.6 kJ/mol

**Q.** And the denaturant m value (Fluorescence)?
**A.** 1.09 kcal/mol/M

**Q.** What about the “denaturant midpoint” value (Fluorescence) of the same protein?
**A.** 3.81 M

**Q.** And the unfolding free energy (Fluorescence)?
**A.** 17.3 kJ/mol
